Laboratory results as given in patent US20040054149.

B1: ADAMTS-5 active site mutant (E411-Q411) (protein)
chain: SISRARQVELLLVADASMARLYGRGLQHYLLTLASIANRLYSHASIENHIRLAVVKVVVLGDKDKSLEVSKNAATTLKNFCKWQHQHNQLGDDHEEHYDAAILFTREDLCGHHSCDTLGMADVGTICSPERSCAVIEDDGLHAAFTVAHQIGHLLGLSHDDSKFCEETFGSTEDKRLMSSILTSIDASKPWSKCTSATITEFLDDGHGNCLLDLPRKQILGPEELPGQTYDATQQCNLTFGPEYSVCPGMDVCARLWCAVVRQGQMVCLTKKLPAVEGTPCGKGRICLQGKCVDKTKKKYYSTSSHGNWGSWGSWGQCSRSCGGGVQFAYRHCNNPAPRNNGRYCTGKRAIYRSCSLMPCPPNGKSFRHEQCEAKNGYQSDAKGVKTFVEWVPKYAGVLPADVCKLTCRAKGTGYYVVFSPKVTDGTECRPYSNSVCVRGKCVRTGCDGIIGSKLQYDKCGVCGGDNSSCTKIVGTFNKKSKGYTDVVRIPEGATHIKVRQFKAKDQTRFTAYLALKKKNGEYLINGKYMISTSETIIDINGTVMNYSGWSHRDDFLHGMGYSATKEILIVQILATDPTKPLDVRYSFFVPKKSTPKVNSVTSHGSNKVGSHTSQPQWVTGPWLACSRTCDTGWHTRTVQCQDGNRKLAKGCPLSQRPSAFKQCLLKKC
B2: truncated aggrecanase-2 from amino acid #1 through amino acid #628 (protein)
chain: SISRARQVELLLVADASMARLYGRGLQHYLLTLASIANRLYSHASIENHIRLAVVKVVVLGDKDKSLEVSKNAATTLKNFCKWQHQHNQLGDDHEEHYDAAILFTREDLCGHHSCDTLGMADVGTICSPERSCAVIEDDGLHAAFTVAHEIGHLLGLSHDDSKFCEETFGSTEDKRLMSSILTSIDASKPWSKCTSATITEFLDDGHGNCLLDLPRKQILGPEELPGQTYDATQQCNLTFGPEYSVCPGMDVCARLWCAVVRQGQMVCLTKKLPAVEGTPCGKGRICLQGKCVDKTKKKYYSTSSHGNWGSWGSWGQCSRSCGGGVQFAYRHCNNPAPRNNGRYCTGKRAIYRSCSLMPCPPNGKSF
B3: truncated aggrecanase-2 from amino acid #1 through amino acid #567 (protein)
chain: SISRARQVELLLVADASMARLYGRGLQHYLLTLASIANRLYSHASIENHIRLAVVKVVVLGDKDKSLEVSKNAATTLKNFCKWQHQHNQLGDDHEEHYDAAILFTREDLCGHHSCDTLGMADVGTICSPERSCAVIEDDGLHAAFTVAHEIGHLLGLSHDDSKFCEETFGSTEDKRLMSSILTSIDASKPWSKCTSATITEFLDDGHGNCLLDLPRKQILGPEELPGQTYDATQQCNLTFGPEYSVCPGMDVCARLWCAVVRQGQMVCLTKKLPAVEGTPCGKGRICLQGKCVDKTKKKYYSTSSH

Biological target: chondroitinase-treated bovine aggrecan, P13608
Sequence (P13608 17-2364): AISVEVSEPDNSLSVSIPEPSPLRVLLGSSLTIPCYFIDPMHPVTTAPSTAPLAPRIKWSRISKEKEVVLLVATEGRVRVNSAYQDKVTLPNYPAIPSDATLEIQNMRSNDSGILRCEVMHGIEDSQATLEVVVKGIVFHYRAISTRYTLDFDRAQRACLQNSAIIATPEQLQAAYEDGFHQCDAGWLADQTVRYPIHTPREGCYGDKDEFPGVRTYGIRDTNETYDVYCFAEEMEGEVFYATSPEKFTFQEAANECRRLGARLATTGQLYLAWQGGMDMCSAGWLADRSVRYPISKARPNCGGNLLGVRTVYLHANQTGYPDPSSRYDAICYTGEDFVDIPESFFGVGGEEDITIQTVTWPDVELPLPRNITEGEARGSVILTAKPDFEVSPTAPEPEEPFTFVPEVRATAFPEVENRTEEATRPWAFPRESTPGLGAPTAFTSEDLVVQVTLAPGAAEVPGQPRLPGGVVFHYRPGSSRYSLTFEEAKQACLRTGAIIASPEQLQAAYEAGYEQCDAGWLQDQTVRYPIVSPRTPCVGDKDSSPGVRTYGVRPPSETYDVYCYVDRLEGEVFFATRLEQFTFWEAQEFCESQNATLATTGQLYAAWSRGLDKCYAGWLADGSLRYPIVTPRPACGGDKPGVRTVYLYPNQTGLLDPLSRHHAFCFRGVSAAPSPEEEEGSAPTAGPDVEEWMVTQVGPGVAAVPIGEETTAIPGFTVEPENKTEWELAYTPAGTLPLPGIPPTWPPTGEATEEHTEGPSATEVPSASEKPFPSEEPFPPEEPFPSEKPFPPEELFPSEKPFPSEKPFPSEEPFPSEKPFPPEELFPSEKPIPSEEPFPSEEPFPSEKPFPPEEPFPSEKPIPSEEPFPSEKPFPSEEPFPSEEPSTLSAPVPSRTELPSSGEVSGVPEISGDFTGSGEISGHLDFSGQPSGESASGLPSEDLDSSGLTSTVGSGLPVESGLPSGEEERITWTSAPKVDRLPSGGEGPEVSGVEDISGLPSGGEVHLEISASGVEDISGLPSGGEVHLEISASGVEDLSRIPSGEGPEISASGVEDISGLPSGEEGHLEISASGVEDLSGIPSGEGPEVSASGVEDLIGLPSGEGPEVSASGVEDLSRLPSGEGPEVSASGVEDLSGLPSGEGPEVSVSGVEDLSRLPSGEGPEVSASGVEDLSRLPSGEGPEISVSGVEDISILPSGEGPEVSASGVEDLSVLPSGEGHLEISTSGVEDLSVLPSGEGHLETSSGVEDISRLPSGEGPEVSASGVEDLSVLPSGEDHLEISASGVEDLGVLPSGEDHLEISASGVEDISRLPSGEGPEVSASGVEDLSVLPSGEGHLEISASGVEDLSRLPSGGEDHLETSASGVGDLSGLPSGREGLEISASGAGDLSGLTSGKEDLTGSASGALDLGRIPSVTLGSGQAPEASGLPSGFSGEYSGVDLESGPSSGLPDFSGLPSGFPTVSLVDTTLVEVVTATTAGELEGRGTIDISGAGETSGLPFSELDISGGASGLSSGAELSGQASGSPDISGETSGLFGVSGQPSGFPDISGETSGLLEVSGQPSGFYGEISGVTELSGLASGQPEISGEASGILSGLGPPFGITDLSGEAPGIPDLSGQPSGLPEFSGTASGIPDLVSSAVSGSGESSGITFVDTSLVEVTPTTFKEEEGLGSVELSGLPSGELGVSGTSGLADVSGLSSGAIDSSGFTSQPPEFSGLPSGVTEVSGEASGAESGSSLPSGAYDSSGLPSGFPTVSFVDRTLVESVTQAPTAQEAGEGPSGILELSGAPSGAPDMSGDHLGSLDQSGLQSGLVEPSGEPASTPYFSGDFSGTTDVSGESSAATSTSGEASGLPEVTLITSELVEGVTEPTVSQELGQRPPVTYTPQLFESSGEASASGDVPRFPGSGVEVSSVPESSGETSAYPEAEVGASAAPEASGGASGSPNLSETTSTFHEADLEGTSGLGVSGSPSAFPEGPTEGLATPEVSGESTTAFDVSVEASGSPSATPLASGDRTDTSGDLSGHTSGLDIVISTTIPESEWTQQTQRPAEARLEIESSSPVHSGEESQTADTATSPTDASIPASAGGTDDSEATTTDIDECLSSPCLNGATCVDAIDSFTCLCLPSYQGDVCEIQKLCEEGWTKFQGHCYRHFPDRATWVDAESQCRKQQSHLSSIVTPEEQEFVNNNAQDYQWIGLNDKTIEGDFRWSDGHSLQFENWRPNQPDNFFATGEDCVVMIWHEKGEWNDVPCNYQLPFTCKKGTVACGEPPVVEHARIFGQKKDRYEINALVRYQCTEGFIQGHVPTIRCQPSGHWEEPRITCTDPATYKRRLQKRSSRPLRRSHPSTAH

| Protein | aggrecanase activity (ELISA) | % aggrecan cleavage (3B3 ELISA assay) |
| --- | --- | --- |
| B1 | lacked aggrecanase activity as shown by ELISA (FIG. 16) |  |
| B2 |  | truncated aggrecanases of the invention having one or both TSP domains deleted are biologically active |
| B3 |  | truncated aggrecanases of the invention having one or both TSP domains deleted are biologically active |
